Data taken from article PMC4137956 (Immunology, 2014).

Assays:
[1] = target: T1, C57BL/6 mouse SIRPα, N-terminal domain (d1) (mouse, biotin (on the biotinylation sequence)); assay: SPR; biotinylated SIRPα variants bound to streptavidin immobilised on a BIAcore CM5 chip, BIAcore 3000, 37°; dilutions of monomeric recombinant CD47 extracellular domain passed over; affinity from equilibrium binding; details: one partner purified
T1 sequence (P97797 whole entry, looked up): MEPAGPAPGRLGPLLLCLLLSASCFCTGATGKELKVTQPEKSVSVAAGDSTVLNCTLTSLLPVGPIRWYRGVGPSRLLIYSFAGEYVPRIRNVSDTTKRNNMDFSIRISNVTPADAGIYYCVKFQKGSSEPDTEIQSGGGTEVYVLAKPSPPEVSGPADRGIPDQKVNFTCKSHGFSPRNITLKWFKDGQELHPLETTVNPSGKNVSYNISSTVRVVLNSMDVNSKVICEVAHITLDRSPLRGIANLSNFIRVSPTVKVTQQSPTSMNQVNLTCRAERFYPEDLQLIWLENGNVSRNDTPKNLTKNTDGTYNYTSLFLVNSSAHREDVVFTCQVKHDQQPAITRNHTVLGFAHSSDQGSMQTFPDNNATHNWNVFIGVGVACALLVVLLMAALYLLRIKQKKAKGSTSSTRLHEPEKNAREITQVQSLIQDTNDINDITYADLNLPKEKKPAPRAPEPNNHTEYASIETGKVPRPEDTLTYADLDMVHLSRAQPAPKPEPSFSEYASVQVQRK

[2] = target: T2, 129 mouse SIRPα, three extracellular IgSF domains (3d) (mouse, UniProt P97797 32-369, biotin (on the biotinylation sequence)); assay: as above; details: one partner purified
T2 sequence (looked up): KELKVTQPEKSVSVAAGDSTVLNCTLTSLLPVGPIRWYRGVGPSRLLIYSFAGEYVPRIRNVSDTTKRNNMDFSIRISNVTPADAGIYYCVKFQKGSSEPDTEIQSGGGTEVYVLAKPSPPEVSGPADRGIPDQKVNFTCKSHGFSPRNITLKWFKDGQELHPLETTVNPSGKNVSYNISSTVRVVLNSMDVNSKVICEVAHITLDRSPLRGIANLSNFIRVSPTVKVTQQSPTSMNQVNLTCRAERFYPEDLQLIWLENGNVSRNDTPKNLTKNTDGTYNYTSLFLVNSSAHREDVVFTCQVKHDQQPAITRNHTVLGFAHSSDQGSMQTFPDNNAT

- Kd [1]: 5.3 µM
- Kd [2]: 2.5 µM
B1: mouse CD47 IgSF domain, monomeric recombinant extracellular domain (domain or fragment)
chain: QLLFSNVNSIEFTSGNETVVIPCIVRNVEAQSTEEMFVKWKLNKSYIFIYDGNKNSTTTDQNFTSAKISVSDLINGIASLKMDKRDAMVGNYTCEVTELSREGKTVIELKNRTVSWFSPNE
